We go through 29 sequences from the supplement of paper PMC10567573.

A short description of the series: protein stability index of a GFP-peptide fusion (GPS, HEK-293T) (PSI 1-6); higher = more stable. The conditions noted are these: c terminus: a fixed tail appended.

± gives the standard deviation.
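Note: 24-mer peptide tiles fused after GFP, lentivirally expressed, FACS-sorted into six equal bins by GFP/DsRed ratio, decoded by Illumina sequencing, PSI is the read-weighted mean bin number.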

Turning to EGDLPQMEVGSGSRELSLRPSRSG [EID1], the protein stability index was found to be 5.07 ± 0.31 (treatment: DMSO) and 5.36 ± 0.35 (treatment: MLN4924 1 uM, 8 h).

With EGHPFKAYLELEITLSQEQIQKYT [RTN1], the protein stability index is, setting by setting: (treatment: DMSO) 2.33 ± 0.67; (treatment: MLN4924 1 uM, 8 h) 2.13 ± 0.26.

On to EGVKRYEQEHAAIQDKLFQVAKRE [CHCHD6], for which the protein stability index came out at 4.84 ± 0.32 (treatment: DMSO) and 4.78 ± 0.24 (treatment: MLN4924 1 uM, 8 h).

With EIFAIDLRCGNQGKGWKATRLFHD [DCAF4], the protein stability index reads like this: (treatment: DMSO) 2.24 ± 0.44; (treatment: MLN4924 1 uM, 8 h) 2.12 ± 0.22.

Consider EISKDNSCKENCTCSSCLLRAPTI [EDARADD], for which the protein stability index came out at 4.67 ± 0.29 (treatment: DMSO) and 4.86 ± 0.14 (treatment: MLN4924 1 uM, 8 h).

In turn, EKAKAFWAMRRSYEAIAKHNQVEA [TRIM35] registered a protein stability index (treatment: DMSO) of 2.83 ± 0.34 and a protein stability index (treatment: MLN4924 1 uM, 8 h) of 3.18 ± 0.26.

EKIAAEIAQAEEQARKRQEEREKE [SMARCE1]: the protein stability index (treatment: DMSO) is 5.44 ± 0.17 and the protein stability index (treatment: MLN4924 1 uM, 8 h) was 5.74 ± 0.25.

As to EKILRELSEEEEDEEEEEEEEEEG [KCNA4], the protein stability index stood at 5.65 ± 0.2 (treatment: DMSO) and 5.69 ± 0.17 (treatment: MLN4924 1 uM, 8 h).

Consider EKIWRPNRVFSLQDLCCRAIVSCT [RAB40C], for which the protein stability index reads like this: (treatment: DMSO) 2.76 ± 0.19; (treatment: MLN4924 1 uM, 8 h) 2.88 ± 0.14.

As for EKKDDENIPMETEETHLEETTESQ [SMARCE1], the protein stability index was determined as 5.58 ± 0.43 (treatment: DMSO) and 5.39 ± 0.57 (treatment: MLN4924 1 uM, 8 h).

EKKDTITNDSLSLKPSWFDFGFAI [MIA2]: the protein stability index came to 2.46 ± 0.19 (treatment: DMSO) and 2.48 ± 0.19 (treatment: MLN4924 1 uM, 8 h).

Take EKNRKDAEDWFFSKTEELNREVAT [KRT17]: the protein stability index was 4.5 ± 0.14 (treatment: DMSO) and 4.71 ± 0.27 (treatment: MLN4924 1 uM, 8 h).

Consider ELACPAERSGHVAVSDGRHMFVWG [KLHDC2], for which the protein stability index by setting is: (treatment: DMSO) 2.84 ± 0.15; (treatment: MLN4924 1 uM, 8 h) 2.92 ± 0.2.

As to ELDIPQSVQQNGSIYIHVYFTKSG [CLPTM1], the protein stability index by setting is: (treatment: DMSO) 2.3 ± 0.57; (treatment: MLN4924 1 uM, 8 h) 2.85 ± 0.67.

Turning to ELEKLAEKNIILEEKIQVLQQQNE [MTUS2], the protein stability index reads like this: (treatment: DMSO) 4.63 ± 0.32; (treatment: MLN4924 1 uM, 8 h) 4.53 ± 0.22.

In the case of ELQLEAANETYENNFDNLDFDLDL [ATF6], the protein stability index runs as follows: (treatment: DMSO) 4.76 ± 0.26; (treatment: MLN4924 1 uM, 8 h) 5.08 ± 0.11.

As for ENARSGAEAEPEDQDEGEWGLDQE [ZBED1], the protein stability index is, setting by setting: (treatment: DMSO) 5.62 ± 0.15; (treatment: MLN4924 1 uM, 8 h) 5.56 ± 0.28.

ENFQEGKDMSESQDEVPDEVENQF [TAF7L]: the protein stability index is 5.58 ± 0.2 (treatment: DMSO) and 5.56 ± 0.24 (treatment: MLN4924 1 uM, 8 h).

On to ENITTVSVIKDHHTRSITSCCFDP [WDR88], for which the protein stability index amounted to 3.55 ± 0.28 (treatment: DMSO) and 3.78 ± 0.16 (treatment: MLN4924 1 uM, 8 h).

As to ENLDNDTETDSLVSAQRERPRRRD [DVL3], the protein stability index was found to be 5.51 ± 0.2 (treatment: DMSO) and 5.41 ± 0.29 (treatment: MLN4924 1 uM, 8 h).

Sequence ENQLVRKQDVLGPSTTPPAHSSSN [SASS6] displayed a protein stability index (treatment: DMSO) of 5.19 ± 0.21 and a protein stability index (treatment: MLN4924 1 uM, 8 h) of 5.29 ± 0.069.

For the sequence EPGGYDSSSTLMSSELETTSFFDS [DVL3], the protein stability index reads like this: (treatment: DMSO) 4.96 ± 0.31; (treatment: MLN4924 1 uM, 8 h) 4.96 ± 0.21.

For EPSLKATMGLAGRARVKEKFSPEA [ALG2], the protein stability index is, setting by setting: (treatment: DMSO) 4.6 ± 0.34; (treatment: MLN4924 1 uM, 8 h) 4.94 ± 0.19.

EQLQGFNTRVRELAQAAGFAPQTG [DNAAF3]: the protein stability index turned out to be 3.66 ± 0.28 (treatment: DMSO) and 3.91 ± 0.67 (treatment: MLN4924 1 uM, 8 h).

Consider ERGPYRTRKHAHHCHKRRTRSCSS [CLK3], for which the protein stability index runs as follows: (treatment: DMSO) 4.42 ± 0.24; (treatment: MLN4924 1 uM, 8 h) 4.51 ± 0.15.

Consider ERGSMKTHFNTAQGFRTVLELVIN [OAS1], for which the protein stability index runs as follows: (treatment: DMSO) 2.13 ± 0.43; (treatment: MLN4924 1 uM, 8 h) 2.5 ± 0.56.

ERGTPGLPGPKGDDGKLGATGPMG [SCARA5]: the protein stability index reads like this: (treatment: DMSO) 4.92 ± 0.34; (treatment: MLN4924 1 uM, 8 h) 4.95 ± 0.15.

Turning to ERITILRGNHESRQITQVYGFYDE [PPP2CA], the protein stability index reads like this: (treatment: DMSO) 2.84 ± 0.13; (treatment: MLN4924 1 uM, 8 h) 3.1 ± 0.25.

Take ERLQKEEEKRRREEEERLRREEEE [ACBD3]: the protein stability index reads like this: (treatment: DMSO) 5.67 ± 0.26; (treatment: MLN4924 1 uM, 8 h) 5.59 ± 0.23.
